# In US20090297524A1 (DOMANTIS, published 2009):
# T1: Recombinant human CD40L (human, UniProt P29965 108-261, limits assumed)
# T1 construct: also called CD40 ligand
# T1 sequence (looked up): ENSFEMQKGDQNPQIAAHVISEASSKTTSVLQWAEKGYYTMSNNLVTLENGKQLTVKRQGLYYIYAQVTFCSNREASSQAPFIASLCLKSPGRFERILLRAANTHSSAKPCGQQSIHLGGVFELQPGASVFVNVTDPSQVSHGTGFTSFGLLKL
# Target: T1, Recombinant human CD40L
# Test: CD40L/CD40-Fc receptor binding assay;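 further: plate assay with coated human CD40-Fc, bound ligand detected via HRP anti-biotin antibody and TMB, OD at 450 nm, lower signal indicates stronger inhibition by dAb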
# Method: A 96 well Nunc Maxisorp assay plate was coated overnight at 4° C. with 100 μl per well of recombinant human CD40/Fc (R&D Systems) at 0.5 μg/ml in carbonate buffer. The plate was washed 3 times with 300 μl of 0.05% Tween/PBS and 3 times with 300 μl of PBS using a Tecan plate washer. The wells were blocked using 200 μl of PBS containing 2% (w/v) BSA and incubated for a minimum of 1 h at room temperature. The wells were washed as above, then 50 μl of purified dAb protein (or unpurified supernatant containing dAb from a micro-culture expression) was added to each well.
# The plate was washed as described above, then 100 μl HRP conjugated anti-biotin antibody (1:5000 dilution in diluent) added to each well and the plate incubated for 1 hr at room temperature. The plate was washed again as described above using a Tecan plate washer and the assay developed using 100 μl of SureBlue 1-Component TMB MicroWell Peroxidase solution (the plate was left at room temperature for up to 20 min). The reaction was stopped by the addition of 100 μl M hydrochloric acid. The OD₄₅₀ₙₘ of the plate was assayed within 30 minutes of acid addition. The OD₄₅₀ₙₘ is proportional to the amount of bound streptavidin-HRP conjugate, therefore the greater the degree of dAb inhibition the lower the OD₄₅₀ₙₘ of the resulting signal.
row,Binder,binding result
1,"DOM.105 (other, Vk dAb) VL: DIQMTQSPSSLSASVGDRVTITCRASQAIGHRLRWYQQKPGKAPKLLIYHRSKLQSGVPSRFSGSGSGTDFTLTISSLQPEDFATYYCQQSYARPVTFGQGTKVEIKR",binds
2,"DOM.142 (other, Vk dAb) VL: DIQMTQSPSSLSASVGDRVTITCRASQFIGDSLSWYQQKPGKAPKLLIYFSSILQSGVPSRFSGSGSGTDFTLTISSLQPEDFATYYCQQYHTSPTTFGRGTKVKIKR",binds
3,"DOM.155 (other, Vk dAb) VL: DIQMTQSPSSLSASVGDRVTITCRASQDIGMDLEWYQQIPGKVPKLLIYDASYLQSGVPSRFSGSGSGTDFTLTISSLQPEDFATYYCQQYHKLPATFGQGTKVEIKR",binds
4,"DOM.147 (other, Vk dAb) VL: DIQMTQSPSSLSASVGDRVTITCRASQEIETNLEWYQQKPGKAPKLLIYDSSHLQSGVPSRFSGSGSGTDFTLTISSLQPEDFATYYCQQYHQNPPTFGQGTKVEIKR",binds
5,"DOM.108 (other, Vk dAb) VL: DIQMTQSPSSLSASVGDRVTITCRASQAIGHRLRWYQQKPGKAPKLLIYHRSKLQSGVPSRFSGSGSGTDFTLTISSLQPEDFATYYCQQRAVRPFTFGQGTKVEIKR",binds
6,"DOM.107 (other, Vk dAb) VL: DIQMTQSPSSLSASVGDRVTITCRASQAIGHRLRWYQQKPGKAPKLLIYHRSKLQSGVPSRFSGSGSGTDFTLTISSLQPEDFATYYCQQTYSSPHTFGQGTKVEIKR",binds
7,"DOM.109 (other, Vk dAb) VL: DIQMTQSPSSLSASVGDRVTITCRASQAIGHRLRWYQQKPGKAPKLLIYHRSKLQSGVPSRFSGSGSGTDFTLTISSLQPEDFATYYCQQTYYRPLTFGQGTKVEIKR",binds
8,"DOM.106 (other, Vk dAb) VL: DIQMTQSPSSLSASVGDRVTITCRASQSINHRLYWYQQKPGKAPKLLIYHRSRLQSGVPSRFSGSGSGTDFTLTISSLQPEDFATYYCQQYKVRPNTFGQGTKVEIKR",binds
9,"DOM.154 (other, Vk dAb) VL: DIQMTQSPSSLSASVGDRVTITCRASQDIEEMLHWYQQKPGKAPKLLIYFGSLLQSGVPSRFSGSRSGTDFTLTISSLQPEDFATYYCQQHHTRPYTFGQGTKVEIKR",binds
10,"DOM.110 (other, Vk dAb) VL: DIQMTQSPASLSASVGDRVTITCRASQDIDPMLRWYQQKPGKAPKLLIYAGSILQSGVPSRFSGSGSGTDFTLTISSLQPEDFATYYCQQTSIRPYTFGQGTKVEIKR",binds
11,"DOM.150 (other, Vk dAb) VL: DIQMTQSPSSLSASVGDRVTITCRASQGIGTDLNWYQQKPGKAPKLLIYMGSYLQSGVPSRFSGSGSGTDFTLTISSLQPEDFATYYCQQIYSFPITFGQGTKVEIKR",binds
12,"DOM.144 (other, Vk dAb) VL: DIQMTQSPSSLSASVGDRVTITCRASQMIDQDLEWYQQKPGKAPKLLIYNASWLQSGVPSRFSGSGSGTDFTLTISSLQPEDFATYYCQQYHGYPITFGQGTKVEIKR",binds
13,"DOM.143 (other, Vk dAb) VL: DIQMTQSPSSLSASVGDRVTITCRASQTIETNLEWYQQKPGKAPKLLIYDSSQLQSGVPSRFSGSGSGTDFTLTISSLQPEDLATYYCQQYHGYPTTFGQGTKVEIKR",binds
14,"DOM.156 (other, Vk dAb) VL: DIQMTQSPSSLSASVGDRVTITCRASQDIMDNLEWYQQKPGKAPKLLIYAASWLQSGVPSRFSGSGSGTDFTLTISSLQPEDFATYYCQQYHKLPVTFGQGTKVEIKR",binds
